Where “and” joins values, the source holds several entries; their conditions need not be identical. Identical values can stand only once.
T1: ANGPTL3/8 complex containing a FLAG-tag sequence at the C terminus of ANGPTL3 (recombinant, human) (human, UniProt Q9Y5C1 17-460; Q6UXH0 22-198)
T1 sequence (looked up) 1: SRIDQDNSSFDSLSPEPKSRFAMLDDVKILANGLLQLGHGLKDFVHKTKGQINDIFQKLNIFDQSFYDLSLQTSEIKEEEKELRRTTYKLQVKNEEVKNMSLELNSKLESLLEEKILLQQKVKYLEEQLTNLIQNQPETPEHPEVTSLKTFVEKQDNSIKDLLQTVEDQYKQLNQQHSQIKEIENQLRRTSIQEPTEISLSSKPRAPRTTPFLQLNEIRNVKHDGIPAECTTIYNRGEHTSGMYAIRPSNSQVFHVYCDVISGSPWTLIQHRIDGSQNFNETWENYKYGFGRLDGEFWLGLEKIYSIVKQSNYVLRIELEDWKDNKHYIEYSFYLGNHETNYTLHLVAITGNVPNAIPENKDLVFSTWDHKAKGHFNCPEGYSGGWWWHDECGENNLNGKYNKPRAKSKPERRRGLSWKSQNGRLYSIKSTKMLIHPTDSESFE
T1 sequence (looked up) 2: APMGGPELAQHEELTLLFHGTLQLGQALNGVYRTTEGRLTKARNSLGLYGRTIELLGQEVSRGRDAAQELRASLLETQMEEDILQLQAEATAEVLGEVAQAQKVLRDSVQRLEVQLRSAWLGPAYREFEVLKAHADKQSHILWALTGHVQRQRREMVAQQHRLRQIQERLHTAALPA

T2: ANGPTL3/8 complex present in human serum (human (endogenous in serum)) (UniProt Q6UXH0)
T2 sequence (Q9Y5C1 17-460, looked up): T1 sequence (looked up) 1
T2 sequence (Q6UXH0 22-198, looked up): T1 sequence (looked up) 2

B1: HSA-ApoA5 (HIS tag-mature HSA-PreScission cleavage site-mature human ApoA5, residues 24-366) (natural protein, UniProt Q6Q788 24-366, looked up)
chain: RKGFWDYFSQTSGDKGRVEQIHQQKMAREPATLKDSLEQDLNNMNKFLEKLRPLSGSEAPRLPQDPVGMRRQLQEELEEVKARLQPYMAEAHELVGWNLEGLRQQLKPYTMDLMEQVALRVQELQEQLRVVGEDTKAQLLGGVDEAWALLQGLQSRVVHHTGRFKELFHPYAESLVSGIGRHVQELHRSVAPHAPASPARLSRCVQVLSRKLTLKAKALHARIQQNLDQLREELSRAFAGTGTEEGAGPDPQMLSEEVRQRLQAFRQDTYLQIAAFTRAIDQETEEVQQQLAPPPPGHSAFAPEFQQTDSGKVLSKLQARLDDLWEDITHSLHDQGHSHLGDP
notes: mature human ApoA5, residues 24-366 of NP_443200.2; Secreted by a mouse IgG kappa signal peptide; source: HEK293, transient transfection, purified from culture media (Ni-NTA, Superdex 200); not shown: His tag, N-terminal, kept; mature human serum albumin (HSA), N-terminal, kept

Assays:
[1] = target: ANGPTL8 in human serum (human (endogenous in serum)) (UniProt Q6UXH0); experiment: affinity purification with mass spectrometry; immunoprecipitation with the anti-ANGPTL3/8 antibody from 1 ml pooled human serum (three pools); on-bead Trypsin/Lys-C digest; LC-MRM with 0.25 pmole stable isotope-labeled peptides, two peptides a protein
[2] = target: T1, ANGPTL3/8 complex containing a FLAG-tag …; experiment: cell-based or functional assay
[3] = target: T2, ANGPTL3/8 complex present in human serum (human (endogenous in serum)); experiment: affinity purification with mass spectrometry; immunoprecipitation with the anti-ANGPTL3/8 antibody from 1 ml pooled human serum (three pools); on-bead Trypsin/Lys-C digest; LC-MRM with 0.25 pmole stable isotope-labeled peptides, two peptides a protein
[4] = target: T1, ANGPTL3/8 complex containing a FLAG-tag …; experiment: BLI; Octet RED96e; FLAG-tagged ANGPTL3/8 immobilised by anti-FLAG antibody on streptavidin biosensors; 6.25-100 nM HSA-ApoA5 in solution; background reference subtraction; global fit, 1:1 binding model; conditions: both partners purified

Molecule | stoichiometry N [1] | EC50 of HSA-ApoA5 to block the inhibition of LPL activity by 0.3 nM ANGPTL3/8 (human LPL-stable expression cells, EnzChek substrate) [2] | protein ratio ApoA5/ANGPTL8 in the immunoprecipitate (ApoA5 per ANGPTL3/8 complex) [3] | Kd [4] | koff [4] | kon [4]
ANGPTL3 in human serum (natural protein) | 2.8 and 2.7 |  |  |  |  | 
B1 |  | 21 nM | 0.5 and 0.53 | 0.52 nM | 0.000135 s⁻¹ | 260000 M⁻¹ s⁻¹
